In US20220356210A1, “A SERIES OF INJECTABLE HYDROGELS SELF-ASSEMBLED FROM SHORT PEPTIDES FOR VARIOUS BIOMEDICAL APPLICATIONS” (Agency for Science, Technology and Research, priority 2019, published 2022):
Non-standard residues stand in square brackets, D forms with d. No end group written: not given here.

Tests used:
[1] = Gelation by vial tilting method; type: physicochemical; conditions: for Concentration to form the gel: in the presence of a salt; for Minimum concentration to form the gel: without the presence of a salt
Method: The peptide powder was dissolved in water or other aqueous solutions at the required concentrations. Alternatively, the required salt may be added after the peptide aqueous solution is prepared. The hydrogel was formed by mixing the peptide aqueous solution and salt (if required). For example, the solution was vortexed and then incubated to form hydrogel. The hydrogel formed may be stored as formed, or may be dried, for example by freeze drying. Alternatively, the hydrogel may be formed as required. The gelation time was determined by the vial tilting method. […] Rheology experiments were performed at room temperature using a control-strain rheometer (ARES G2, TA instruments). The rheometer is equipped with two sensitive force transducers for torque ranging from 0.05 μN·m to 200 mN·m. The peptide powder was dissolved in water at concentrations ranging from 1.0 to 2.0 (w/v) %. The solution was vortexed and then incubated to form hydrogel. The gel was placed onto parallel-plate geometry (8 mm in diameter). The dynamic storage modulus (G′) and loss modulus (G″) were examined as a function of frequency from 1 to 100 rad/s. The measurements were carried out at a strain amplitude (y) to ensure the linearity of viscoelasticity. Flow sweep (viscosity changes as a function of shear rate) was also performed to study shear thinning properties of hydrogels.

[2] = Rheology, G′ and G″ at frequency of 1 Hz; type: physicochemical
Method: The gelation time was determined by the vial tilting method. […] Rheology experiments were performed at room temperature using a control-strain rheometer (ARES G2, TA instruments). The rheometer is equipped with two sensitive force transducers for torque ranging from 0.05 μN·m to 200 mN·m. […] The solution was vortexed and then incubated to form hydrogel. The gel was placed onto parallel-plate geometry (8 mm in diameter). The dynamic storage modulus (G′) and loss modulus (G″) were examined as a function of frequency from 1 to 100 rad/s. The measurements were carried out at a strain amplitude (y) to ensure the linearity of viscoelasticity. Flow sweep (viscosity changes as a function of shear rate) was also performed to study shear thinning properties of hydrogels.

[3] = CD spectra of peptide amphiphiles; type: physicochemical; conditions: 1.0 mg/mL, with addition of salt (PBS pH 7.4), room temperature
Method: CD measurements were performed with a Jasco Model J-810 spectropolarimeter (Jasco, Great Dunmow, Essex, UK) using a quartz cuvette with 1 mm pathlength (Hellma, Germany). Spectra were recorded (average of 3 scans) from 240 to 190 nm at a scan speed of 50 nm/min. The ellipticity was derived from the formula: [θ]λ=(M/(N−1)×θλ)/(d×c), where θλ represents observed ellipticity (degrees) at wavelength λ, d represents pathlength (cm), c represents the concentration (g/mL), and [θ]λ represents residue ellipticity (deg cm^2 dmol^−1). Thermal scans were measured with Jasco Model J-810 spectropolarimeter equipped with a peltier temperature controller. The solution was allowed to reach equilibrium for 10 min at room temperature prior to testing.

[4] = Stability of peptide hydrogels in PBS
hMSCs = experiment: Live/Dead staining of hMSCs on or in peptide hydrogel (confocal); type: cell-based, human
Method: hMSCs were cultured in MSCGM medium (Lonza, U.S.A.) and incubated at 37° C., 5% CO2. The medium was changed every three days. The cells were harvested with PBS containing 0.025 (w/v) % trypsin and 0.01% EDTA, centrifuged and sub-cultured to passage 4 in MSCGM for 2D culture on the surface of hydrogels or 3D hydrogel encapsulation as described below.
The morphology and viability of hMSCs on the surface of hydrogels and inside 3D peptide hydrogel environment was observed by an inverted confocal laser scanning microscope (CLSM) (CLSM, Carl Zeiss, Germany). Live/Dead cell staining assay (Invitrogen) was used. Briefly, cells cultured on the surfaces of hydrogels in chambered cover glass (NUNC, Denmark) were washed with PBS and incubated in 0.5 mL of PBS containing dyes for 10 min, then visualized by CLSM at excitation wavelengths of 488 nm and 532 nm. All the observations were conducted under the same conditions. For the cells grown in 3D hydrogels, the constructs were cut, followed by the addition of staining agent. The gels were transferred to cover glass and then visualized by CLSM using the same method as described for the cells on the hydrogel surface.

[5] = antimicrobial peptide alone; cited from earlier work
MRSA = conditions: clinically isolated MRSA; cited from earlier work
A. baumannii = conditions: clinically isolated multidrug-resistant A. baumannii; cited from earlier work
VRE = conditions: clinically isolated VRE; cited from earlier work
P. aeruginosa = conditions: clinically isolated multidrug-resistant P. aeruginosa; cited from earlier work
C. neoformans = conditions: clinically isolated yeast C. neoformans; cited from earlier work
rat red blood cells = conditions: cited from earlier work
[6] = In vitro cytotoxicity, MTT assay; type: cell-based, human; conditions: human
Method: 1000 μL of HDFs or keratinocytes (10^5 cells per mL) were seeded onto the 12-well Transwell plates (Corning). IIK12 (1%) with various contents of antimicrobial peptides were dissolved in water and incubated at 37° C. overnight and 100 μL of gels were then transferred to the inserts of the Transwell plate. 1 mL of fresh medium was added into the inserts. The plates were incubated for 24 h before proceeding to MTT assay. It is noted that cells without any treatment and Mupirocin (GSK) were used as controls. The data were expressed as mean and standard deviation of three replicates and the tests were repeated 3 times.

[7] = keratitis mouse model; cited from earlier work
[8] = 1.5 wt %, gelation temp. 37 °C, DMEM
[9] = 1.5 wt %, gelation temp. 37 °C, H2O
[10] = 1.5 wt %, gelation temp. R.T., H2O
[11] = 2.0 wt %, gelation temp. 37 °C, H2O

With IEIEIRIK (IEIEIRIK-NH2) [IIK8] the “Concentration to form the gel” value [1] was 0.6 % w/v, the “Gel appearance, gelation in DI water at R.T.” value ([1]; peptide conc. 1.0 %) was “clear” and the “Gelation in DI water at 37° C. (via tilting)” value ([1]; peptide conc. 1.0 %) was “overnight”. The “Gelation in DI water at R.T. (via tilting), time” value ([1]; peptide conc. 1.0 %) was 1 day, days, the “Gelation in DI water at 37° C. (via tilting), time” value ([1]; peptide conc. 1.5 %) was ≤ 15 min and the “Gelation in DI water at R.T. (via tilting), time” value ([1]; peptide conc. 1.5 %) was 30 min. The “Gelation in DI water at 37° C. (via tilting), time” value ([1]; peptide conc. 1.5 %, listed as IEIEIRIK) was 20 min, the “Gelation in DI water at 37° C. (via tilting), time” value ([1]; peptide conc. 2.0 %) was 20 min and the “Gelation in DI water at R.T. (via tilting), time” value ([1]; peptide conc. 2.0 %) was 30 min. For the same substance, the “Minimum concentration to form the gel” value [1] was 1.0 % w/v, the “G′ (storage modulus)” value [2, 8] was 1206 Pa and the “G″ (loss modulus)” value [2, 8] was 172 Pa. The “G′ (storage modulus)” value [2, 9] was 707 Pa, the “G″ (loss modulus)” value [2, 9] was 32 Pa and the “G′ (storage modulus)” value [2, 10] was 125 Pa. The “G″ (loss modulus)” value [2, 10] was 22 Pa, the “G′ (storage modulus)” value [2, 11] was 1139 Pa and the “G″ (loss modulus)” value [2, 11] was 90 Pa. For the same substance, the “Molecular ellipticity (θM) at the minimum point” value [3] was −28.9 deg.cm^2dmol^−1, the “Stability in PBS” value ([4]; peptide conc. 1.0 %) was “Yes” and the “Stability in PBS” value ([4]; peptide conc. 1.5 %) was “Yes”. The “Stability in PBS” value ([4]; peptide conc. 2.0 %) was “Yes”.

For IELEIRLK (IELEIRLK-NH2) [ILK8], the “Concentration to form the gel” value [1] was 0.6 % w/v, the “Gelation in DI water at 37° C. (via tilting)” value ([1]; peptide conc. 1.0 %) was “overnight” and the “Gelation in DI water at R.T. (via tilting), time” value ([1]; peptide conc. 1.0 %) was 1 day days. For the same substance, the “Gelation in DI water at 37° C. (via tilting), time” value ([1]; peptide conc. 1.5 %) was 15 min, the “Gelation in DI water at R.T. (via tilting), time” value ([1]; peptide conc. 1.5 %) was 30 min and the “Gelation in DI water at 37° C. (via tilting), time” value ([1]; peptide conc. 2.0 %) was 10 min. For the same substance, the “Gelation in DI water at R.T. (via tilting), time” value ([1]; peptide conc. 2.0 %) was 20 min, the “Minimum concentration to form the gel” value [1] was 1.0 % w/v and the “G′ (storage modulus)” value [2, 10] was 332 Pa. For the same substance, the “G″ (loss modulus)” value [2, 10] was 40 Pa, the “Molecular ellipticity (θM) at the minimum point” value [3] was −21.4 deg.cm^2dmol^−1 and the “Stability in PBS” value ([4]; peptide conc. 1.0 %) was “Yes”. For the same substance, the “Stability in PBS” value ([4]; peptide conc. 1.5 %) was “Yes” and the “Stability in PBS” value ([4]; peptide conc. 2.0 %) was “Yes”.

In the case of IEVEIEVKIRVK (IEVEIEVKIRVK-NH2) [IEV12], the “Gelation in DI water at R.T. (via tilting)” value ([1]; peptide conc. 0.5 %) is reported as “No” and the “Gelation in DI water at 37° C. (via tilting)” value ([1]; peptide conc. 1.0, 2.0 %) is reported as “Gel”.

With IEVEIRVK-NH2 [IVK8, IEVEIRVK] the “Viability of encapsulated cells” value (hMSCs; 1 day after encapsulation) was “the majority of encapsulated hMSCs remained viable” and the “Viability of cells on the surface of peptide hydrogel” value (hMSCs; after 24 h attachment) was “the majority of the cells remained viable”.

For “IK8D: D-enantiomer of antimicrobial peptide IRIKIRIK ([dI][dR][dI][dK][dI][dR][dI][dK])”, the “Peptide concentration at which a hydrogel forms” value [5] is listed as 8 w/v %, the MIC (MRSA) is listed as 3.9 µg/mL and the MIC (A. baumannii) is listed as 31.3 µg/mL. For the same substance, the MIC (VRE) was 3.9 µg/mL, the MIC (P. aeruginosa) was 15.6 µg/mL and the MIC (C. neoformans) was 7.8 µg/mL. The “HC10 value (the lowest concentration that induced 10% or more hemolysis)” value (rat red blood cells) was 1750 µg/mL.

For IRIKIRIK-NH2 [IK8L, IRIKIRIK], the viability at 24 h, 1000 µg/mL ([6]; human dermal fibroblasts (HDFs) in 12-well Transwell plates) is given as 22%, the viability at 24 h, 125 µg/mL ([6]; human primary keratinocytes in 12-well Transwell plates) is given as > 70% and the “Toxicity to the eyes” value [7] is given as “without causing significant toxicity to the eyes”. For the same substance, the “HC10 value (the lowest concentration that induced 10% or more hemolysis)” value (rat red blood cells) was 2000 µg/mL.

In the case of IRVE (IRVE-NH2), the “Gelation in DI water at R.T. (via tilting)” value ([1]; peptide conc. 10 %) is reported as “No”.

With IRVEIEVK (IRVEIEVK-NH2) [IRK8] the Gel formation ([1]; concentrations up to 2%) was “no gel formation”, the “Gelation in DI water at R.T. (via tilting)” value ([1]; peptide conc. 1.0 %) was “No” and the “Gelation in DI water at R.T. (via tilting)” value ([1]; peptide conc. 2.0 %) was “No”.

In the case of IRVEIK (IRVEIK-NH2), the “Gelation in DI water at R.T. (via tilting)” value ([1]; peptide conc. 1.0 %) is reported as “No” and the “Gelation in DI water at R.T. (via tilting)” value ([1]; peptide conc. 2.0 %) is reported as “No”.

With IRVEIKVE (IRVEIKVE-NH2) [IRE8] the “Gelation in DI water at R.T. (via tilting)” value ([1]; peptide conc. 1.0 %) was “No”, the “Gel appearance, gelation in DI water at R.T.” value ([1]; peptide conc. 2.0 %) was “clear” and the “Gelation in DI water at 37° C. (via tilting), time” value ([1]; peptide conc. 2.0 %) was 1400 min. The “Gelation in DI water at R.T. (via tilting), time” value ([1]; peptide conc. 2.0 %) was 4300 min and the “Gelation in DI water at R.T. (via tilting), time” value ([1]; peptide conc. 2.0 %, listed as IRVEIKVE) was 3 days,.

For IRVEIRVEIRVE (IRVEIRVEIRVE-NH2) [IRV12], the “Gelation in DI water at R.T. (via tilting)” value ([1]; peptide conc. 0.5 %) was “No”, the “Gel appearance, gelation in DI water at 37° C.” value ([1]; peptide conc. 1.0, 2.0 %) was “cloudy” and the “Gelation in DI water at 37° C. (via tilting)” value ([1]; peptide conc. 1.0, 2.0 %) was “Gel,”.

With IRVKIEVEIRVK (IRVKIEVEIRVK-NH2) [IVK12] the “Lowest concentration at which hydrogels self-assembled” value ([1]; aqueous solution) was 0.6 (w/v) % and the “Gelation in DI water at 37° C. (via tilting)” value ([1]; peptide conc. 0.6, 1.0 %) was “Gel”.
